Test results published in patent publication US20230292718A1, “METHOD FOR CONSTRUCTING MODEL OF VITILIGO AND THE USE OF THE MODEL” (NATIONAL INSTITUTE OF BIOLOGICAL SCIENCES, BEIJING, priority 2020, published 2023).

B1: CXCL9: recombinant chemokine protein added to lower chamber of transwell (protein, UniProt P18340 22-126, looked up)
C-X-C motif chemokine 9: TLVIRNARCSCISTSRGTIHYKSLKDLKQFAPSPNCNKTEIIATLKNGDQTCLDPDSANVKKLMKEWEKKISQKKKQKRGKKHQKNMKNRKPKTPQSRRRSRKTT
B2: IFN-γ: recombinant interferon gamma used to treat fibroblasts in vitro (protein, UniProt P01580 23-155, looked up)
Interferon gamma: HGTVIESLESLNNYFNSSGIDVEEKSLFLDIWRNWQKDGDMKILQSQIISFYLRLFEVLKDNQAISNNISVIESHLITTFFSNSKAKKDAFMSIAKFEVNNPQVQRQAFNELIRVVHQLLPESSLRKRKRSRC
B3: CCL19: recombinant chemokine protein added to lower chamber of transwell (protein, UniProt O70460 26-108, looked up)
C-C motif chemokine 19: GANDAEDCCLSVTQRPIPGNIVKAFRYLLNEDGCRVPAVVFTTLRGYQLCAPPDQPWVDRIIRRLKKSSAKNKGNSTRRSPVS
B4: CXCL10: recombinant chemokine protein added to lower chamber of transwell (protein, UniProt P17515 22-98, looked up)
C-X-C motif chemokine 10: IPLARTVRCNCIHIDDGPVRMRAIGKLEIIPASLSCPRVEIIATMKKNDEQRCLNPESKTIKNLMKAFSQKRSKRAP

Columns and labels:
[1] = test system: activated CD8+OT1 T cells; assay: T cell transwell migration assay with recombinant chemokines; format: cell-based, mouse; conditions: recombinant protein at increasing concentrations in lower chamber, 3 hr incubation
Procedure: Transwell migration of lymphocytes was performed with mature CTLs and concentrated fibroblast conditioned medium. In brief, splenocytes isolated from OT-1 mice were stimulated with OVA257-264 for 3 days in the presence of 10 ng/mL IL2. Cells were centrifuged and cultured in fresh medium containing 10 ng/mL IL2 for 1 more day, after which most of the cells in the culture were CTLs. To measure CD8+ T cell cytotoxicity, B16F10 expressing OVA peptide was mixed in the killing medium at the ratios of 1:1. After 6 hs, the cytotoxic efficiency was confirmed by B16F10 cell survival.
To further identify the secreted factors involved in this process, we first performed RNA-seq analysis of fibroblasts from WT and IFNGR1 KO mice at Day 33 after vitiligo induction, alongside WT mice without vitiligo induction (FIG. 6C). […] Next we compared the single cell transcriptome data of progressive state vitiligo patients fibroblasts and healthy donors fibroblasts. Unsupervised clustering performed by spectral clustering method separates fibroblasts into 4 sub-clusters in healthy donors and 5 sub-clusters in progressive state vitiligo patients (FIG. 6D). […] Comparison of the human and mouse vitiligo fibroblasts specific secreted protein gene signatures, we identified 29 overlapped genes. Among them 11 are conserved major histocompatibility complex genes and 6 are chemokines, including CCL5, CCL8, CCL19, CXCL3, CXCL9 and CXCL10 (FIG. 6F-6G). […]
RFP expressing WT or IFNGR1 KO fibroblasts were intradermally injected into the tail skin of IFNGR1 KO mice. After vitiligo induction on the host mice, CD8+ T cell infiltration was analyzed by whole-mount immunofluorescent staining and quantification. […] Cells were collected from both chambers and counted by flow cytometry after 3 hr incubation. […] After 3 hr incubation, CD8+ T cell migration index was calculated by dividing the number of migrated cells (cells in lower chamber) using the number of migrated plus unmigrated cells (cells in upper chamber+lower chamber).

[2] = test system: primary mouse fibroblasts; assay: QPCR analysis of IFN-γ treated primary fibroblasts using target gene CXCL10 as readout; format: cell-based
Procedure: Total RNAs were isolated from FACS-sorted cells with Trizol followed by extraction using Direct-Zol RNA mini-prep Kit (Zymo research). For cDNA synthesis, equal amounts of RNA were reverse-transcribed by Oligo-dT (Vazyme, R222-01). Expression levels were normalized to the expression of PPIB. Real time PCR was conducted using a CFX96TM Real-Time system (Bio-RAD) with Power SYBRR Green PCR Master Mix (Life Technologies). All primer pairs were designed for the same cycling conditions: 10 min at 95° C. for initial denaturing, 40 cycles of 10 s at 95° C. for denaturing, 30 s at 62° C. for annealing, and 10 s at 65° C. for extension. The primers were designed to produce a product spanning exon-intron boundary in each of the target genes.
Primary fibroblasts isolated from WT or IFNGR1 KO newborn mice dorsal skin were infected with lentivirus expressing shRNA and RFP in vitro. The RFP+ fibroblasts were then intradermally injected into P56 mice tail skin. The presence and location of injected cells were examined 2 weeks later. […] Primary mouse fibroblasts were treated with IFN-γ of increasing dosage and duration time in vitro. Treatment time ranges from 6 hrs to 48 hrs; and IFN-γ concentration gradients range from 5 U/mL to 200 U/mL. […] Primary mouse fibroblasts were treated with increasing dosage of IFN-γ for 6 hrs in vitro. IFN-γ concentration gradients range from 5 U/mL to 1000 U/mL. […]

3T3 fibroblasts = assay: qPCR analysis of shRNA effect in blocking IFN-γ response (GBP2 reporter); format: cell-based, mouse; conditions: 6 hrs IFN-γ treatment, cells expressing scrambled shRNA

| Molecule | CD8+ T cell migration (migration index) [1] | IFN-γ concentration inducing maximum activation (CXCL10 expression level) ([2]; 6 hrs in vitro, gradient 5 U/mL to 1000 U/mL) [U/mL] | CXCL10 expression ([2]; IFN-γ 5 U/mL to 200 U/mL, 6 hrs to 48 hrs) | GBP2 expression level (3T3 fibroblasts) |
| --- | --- | --- | --- | --- |
| B1 | induce CD8+ T cell migration in a dosage dependent manner | – | – | – |
| B2 | – | 1000 | induced by IFN-γ in a dosage dependent manner | significantly increased |
| B3 | induce CD8+ T cell migration in a dosage dependent manner | – | – | – |
| B4 | induce CD8+ T cell migration in a dosage dependent manner | – | – | – |
